We go through four molecules from patent publication US20220267469A1 (LIPUM, published 2022).

The Kd is a measure of binding affinity in units of concentration. A word on the koff: it is the first-order rate constant of dissociation. The kon is the rate constant with which the complex forms. By EC50 (read off the curve) is commonly meant the concentration at which the effect is half-maximal. For orientation: IC50 means the concentration that gives 50% inhibition.

B1: AS20 scFv (scFv, V domains shown)
VH: QVQLQQPGAELVKPGASVKMSCKASGYTFTSYNMHWVKQTPGQGLEWIGVIYPGNGDTSYNQKFKGKATLTADKSSSTAYMQLSSLTSEDSAVYYCARDYYGSSPLGYWGQGTTLTVSS
VL: QIVLTQSPAVMSASPGEKVTMTCSASSSISYMHWYQQKPGTSPKRWIYDTSKLASGVPARFSGSGSGTSYSLTISSMEAEDAATYYCHQRSSYPTFGGGTKLEIK
B2: S-SL048-106 hIgG4 S228P (antibody, V domains shown)
VH: QVQLVQSGAEVKKPGASVKVSCKASGYTFTSYNMHWVRQAPGQGLEWIGVIYPGDGSTSYNQKFQGRVTMTRDTSTSTVYMELSSLRSEDTAVYYCARDYYGSSPLGYWGQGTLVTVSS
VL: DIQMTQSPSSLSASVGDRVTITCSASSSISYMNWYQQKPGKAPKLLIYATSKLPSGVPSRFSGSGSGTDFTLTISSLQPEDFATYYCHQRSSTPTFGQGTKLEIKR
notes: also called mAb106
B3: AS20 hIgG1 LALA-PG (antibody)
heavy: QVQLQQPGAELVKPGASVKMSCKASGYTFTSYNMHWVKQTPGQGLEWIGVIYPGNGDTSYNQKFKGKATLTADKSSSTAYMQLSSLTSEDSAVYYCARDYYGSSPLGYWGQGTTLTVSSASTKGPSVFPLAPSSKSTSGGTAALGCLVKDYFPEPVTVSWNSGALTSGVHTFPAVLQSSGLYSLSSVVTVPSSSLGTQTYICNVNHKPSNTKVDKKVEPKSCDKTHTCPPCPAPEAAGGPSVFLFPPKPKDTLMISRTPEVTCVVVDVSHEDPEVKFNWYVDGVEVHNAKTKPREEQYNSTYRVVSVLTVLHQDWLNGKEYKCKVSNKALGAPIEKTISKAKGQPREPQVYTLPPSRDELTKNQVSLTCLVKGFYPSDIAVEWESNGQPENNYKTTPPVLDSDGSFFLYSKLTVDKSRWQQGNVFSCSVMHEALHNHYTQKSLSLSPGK
light: QIVLTQSPAVMSASPGEKVTMTCSASSSISYMHWYQQKPGTSPKRWIYDTSKLASGVPARFSGSGSGTSYSLTISSMEAEDAATYYCHQRSSYPTFGGGTKLEIKRTVAAPSVFIFPPSDEQLKSGTASVVCLLNNFYPREAKVQWKVDNALQSGNSQESVTEQDSKDSTYSLSSTLTLSKADYEKHKVYACEVTHQGLSSPVTKSFNRGEC
notes: also called AS20 IgG1 LALA-PG
B4: Human BSSL (bile salt-stimulated lipase), native (enzyme)
chain: AKLGAVYTEGGFVEGVNKKLGLLGDSVDIFKGIPFAAPTKALENPQPHPGWQGTLKAKNFKKRCLQATITQDSTYGDEDCLYLNIWVPQGRKQVSRDLPVMIWIYGGAFLMGSGHGANFLNNYLYDGEEIATRGNVIVVTFNYRVGPLGFLSTGDANLPGNYGLRDQHMAIAWVKRNIAAFGGDPNNITLFGESAGGASVSLQTLSPYNKGLIRRAISQSGVALSPWVIQKNPLFWAKKVAEKVGCPVGDAARMAQCLKVTDPRALTLAYKVPLAGLEYPMLHYVGFVPVIDGDFIPADPINLYANAADIDYIAGTNNMDGHIFASIDMPAINKGNKKVTEEDFYKLVSEFTITKGLRGAKTTFDVYTESWAQDPSQENKKKTVVDFETDVLFLVPTEIALAQHRANAKSAKTYAYLFSHPSRMPVYPKWVGADHADDIQYVFGKPFATPTGYRPQDRTVSKAMIAYWTNFAKTGDPNMGDSAVPTHWEPYTTENSGYLEITKKMGSSSMKRSLRTNFLRYWTLTYLALPTVTDQEATPVPPTGDSEATPVPPTGDSETAPVPPTGDSGAPPVPPTGDSGAPPVPPTGDSGAPPVPPTGDSGAPPVPPTGDSGAPPVPPTGDSGAPPVPPTGDSGAPPVPPTGDAGPPPVPPTGDSGAPPVPPTGDSGAPPVTPTGDSETAPVPPTGDSGAPPVPPTGDSEAAPVPPTDDSKEAQMPAVIRF
notes: Native full-length protein purified from human milk (Astra Hässle AB); also called hBSSL; non-biotinylated human BSSL

Assay [1] deals with T1, Mouse BSSL, recombinant (mouse, UniProt Q64285 21-599).
T1 construct: Bought (R&D Systems, Cat. no 5658-CE); also called mBSSL; murine BSSL
T1 sequence: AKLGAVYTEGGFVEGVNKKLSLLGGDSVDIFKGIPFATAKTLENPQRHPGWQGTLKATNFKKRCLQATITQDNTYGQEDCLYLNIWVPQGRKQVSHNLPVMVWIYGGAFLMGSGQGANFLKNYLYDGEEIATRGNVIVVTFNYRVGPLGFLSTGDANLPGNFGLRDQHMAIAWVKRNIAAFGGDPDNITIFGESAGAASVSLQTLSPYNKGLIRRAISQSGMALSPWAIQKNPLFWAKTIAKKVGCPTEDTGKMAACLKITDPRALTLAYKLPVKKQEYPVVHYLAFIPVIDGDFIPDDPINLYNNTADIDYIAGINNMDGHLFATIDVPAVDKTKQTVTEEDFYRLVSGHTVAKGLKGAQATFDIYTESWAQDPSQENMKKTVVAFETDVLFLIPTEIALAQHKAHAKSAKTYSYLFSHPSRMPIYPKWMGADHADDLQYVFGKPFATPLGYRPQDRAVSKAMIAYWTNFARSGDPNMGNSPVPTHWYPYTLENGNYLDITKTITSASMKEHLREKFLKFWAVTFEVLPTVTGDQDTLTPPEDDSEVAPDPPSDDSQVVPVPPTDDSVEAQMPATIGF
Description: HTRF competition. For orientation: TR-FRET usually uses a lanthanide donor and a delayed reading to cut background.

In assay [2] the target is B4. Description: SPR kinetic screen, single concentration (estimated).
In assay [3] the target is B4. Description: SPR single cycle kinetics, scFv captured by anti-FLAG M2.
For assay [4], the target named is B4. The assay can be described thus: ELISA, hBSSL directly coated at 1 µg/ml, detection HRP anti-FLAG M2, A450. For orientation: In an ELISA, binding on a coated surface is turned into a signal by an enzyme label.
Assay [5] has as its target B4. The assay can be described thus: cell-based or functional assay.
Assay [6] concerns the target B4. The assay can be described thus: cell-based or functional assay. The source holds these as a separate data set.
Assay [7] has as its target B4. The assay can be described thus: SPR single cycle kinetics, hIgG4 S228P captured by anti-Fab. The method in brief:
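hIgG4 S228P captured on an immobilized anti-Fab surface; five BSSL concentrations injected, 1:5 dilutions from 50 nM (human) or from 500 nM (mouse). Human BSSL: single-cycle kinetics, 1:1 fit. Mouse BSSL: KD from steady-state equilibrium response versus concentration. Regeneration with 10 mM glycine-HCl pH 2.1.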

Assay [8] has as its target T2, Biotinylated human BSSL (human, UniProt P19835 21-753, Biotinylated on glycosacarides, 30-40 biotin/BSSL).
T2 construct: hBSSL biotinylated in house; also called b-hBSSL; human BSSL-biotin
T2 sequence: B4 chain
Description: flow cytometry displacement assay; 1.5 ug antibody, 1 ug b-hBSSL. Put shortly: (§1)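 Antibody (0.5–3.0 μg per reaction) preincubated with 1 μg biotinylated human BSSL in PBS pH 7.4, 30 min at 4 °C, then with human buffy coat 30 min at 4 °C. After erythrocyte lysis/fixation, bound BSSL on CD14+ monocytes detected by labelled streptavidin via flow cytometry.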
For orientation: Flow cytometry measures light scatter and fluorescence of single cells or particles in a stream.

Assay [9] has as its target T2, Biotinylated human BSSL. Description: flow cytometry displacement assay; 3.0 ug antibody, 1 ug b-hBSSL. Put shortly: as §1
In assay [10] the target is B4. Description: SPR single cycle kinetics, captured by anti-Fab, Absolute Antibody batch. Put shortly: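 hIgG4 S228P antibodies captured on an immobilised anti-Fab surface (Biacore T200). Native human BSSL injected at five concentrations, 0.08-50 nM, as single-cycle kinetics fitted to a 1:1 model; recombinant mouse BSSL at 50-800 nM gave KD by steady-state equilibrium response analysis. Regeneration with 10 mM glycine-HCl pH 2.1.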

The target in assay [11] is T1, Mouse BSSL, recombinant. The assay can be described thus: SPR steady state, hIgG4 S228P captured by anti-Fab; in-house production batch (Example 9); Table 12 marks this value # as unreliable. The method, then:
Kinetic parameters of the hIgG4 S228P clones were determined by SPR using BIACORE® T200 (GE Healthcare). Single cycle kinetics was used to measure the affinity of the purified hIgG4 molecules to human and mouse BSSL. An anti-Fab antibody (GE Healthcare, #28958325) was immobilized on a CM5 S sensor chip by primary amine coupling using NHS-EDC chemistry. hIgG4 was captured by the anti-Fab antibody, and subsequently, five different concentrations of hBSSL (1:5 dilutions starting from 50 nM) or mBSSL (1:5 dilutions starting from 500 nM) were injected over the surface. The sensor chip surface was regenerated with 10 mM glycine-HCl pH 2.1. For binding to human BSSL, single cycle kinetic data was fitted to a 1:1 binding model and kinetic parameters were retrieved using software BlAevaluation. For mouse BSSL, a steady state analysis was performed by plotting the response level at equilibrium against each concentration, and KD values were retrieved by the BlAevalution software.

For assay [12], the target named is T1, Mouse BSSL, recombinant. Description: SPR steady state, antibody immobilised. As to the method:
(§2) Single cycle kinetics was used to measure the affinity of the antibodies. AS20 hIgG1 LALA-PG and anti-NP hIgG1 LALA-PG were immobilized on a CM5 S sensor chip by primary amine coupling using NHS-EDC chemistry. Five different concentrations of antigen (1:3 dilutions starting from 50 nM for hBSSL and 1:2 dilutions starting from 800 nM for mBSSL) were injected over the surface. The sensor chip surface was regenerated with 10 mM glycine-HCl pH 2.1. Obtained single cycle kinetic data was fitted to a Langmuir 1:1 binding model and kinetic parameters were retrieved using the software BlAevaluation. For mBSSL, a steady state analysis was also performed by plotting the response level at equilibrium against each concentration, and KD values were retrieved by the BlAevalution software.

Assay [13] concerns the target B4. Description: SPR single cycle kinetics, antibody immobilised. The method, then:
as §2
A single cycle kinetic SPR approach was used to determine the affinity of the IgG.

The assay “AS20 scFv” concerns the target B1. The assay can be described thus: HTRF competition against 5 nM b-hBSSL for 2.5 nM AS20 scFv. As to the method: In order to study the interaction between AS20 scFv and native mouse BSSL, a competition assay was developed. Detection of binding was enabled through donor molecule terbium-conjugated α-FLAG antibody (Cisbio #611FG2TL), which interacts with the C-terminal located FLAG-tag of the scFv, and acceptor molecule streptavidin-conjugated XL665 (Cisbio #610SAXL), which interacts with the biotin-moieties on human BSSL.
2.5 nM of AS20 scFv was pre-incubated for 2 hours with the mouse or human orthologue of BSSL, after which 5 nM b-hBSSL and the FRET donor and acceptor molecules were added. The mixture was finally incubated at room temperature for 16 hours and the binding signal (665 nm) and background/noise signal (615 nm) was measured using EnVision (PerkinElmer). The experimental output, Delta R, was calculated for each point using four replicates and two blanks.

In the case of B1, the “fold lower affinity than for human BSSL” value in the assay with Mouse BSSL, recombinant [1] is about 100 fold. The Kd in assay [2] was 2 nM. For the same molecule, in assay [3], the Kd worked out at 0.6 nM, the koff is 0.00012 s⁻¹ and the kon came to 190000 M⁻¹ s⁻¹. Further, the “EC50 (read off the curve)” value in assay [4] is about 0.02 µg/mL.
For the molecule B2, in [5], the “BSSL hydrolysis of triglycerides, relative value (no antibody = 100%); 0.19 ug antibody” value was 109%; the “BSSL hydrolysis of triglycerides, relative value (no antibody = 100%); 0.38 ug antibody” value is 123%; the “BSSL hydrolysis of triglycerides, relative value (no antibody = 100%); 0.75 ug antibody” value worked out at 129%; the “BSSL hydrolysis of triglycerides, relative value (no antibody = 100%); 1.5 ug antibody” value came out at 120%. Further, in [5], the “BSSL hydrolysis of triglycerides, relative value (no antibody = 100%); 3.0 ug antibody” value stood at 99.2% and the “BSSL hydrolysis of triglycerides, relative value (no antibody = 100%); 6.0 ug antibody” value was 104%. Further, in assay [6], the “BSSL hydrolysis of cholesterol esters, relative value (no antibody = 100%); 0.19 ug antibody” value was determined as 94.8%; the “BSSL hydrolysis of cholesterol esters, relative value (no antibody = 100%); 0.38 ug antibody” value was 97.2%; the “BSSL hydrolysis of cholesterol esters, relative value (no antibody = 100%); 0.75 ug antibody” value was 93.9%; the “BSSL hydrolysis of cholesterol esters, relative value (no antibody = 100%); 1.5 ug antibody” value was 95.3%. Besides, in [6], the “BSSL hydrolysis of cholesterol esters, relative value (no antibody = 100%); 3.0 ug antibody” value was determined as 99% and the “BSSL hydrolysis of cholesterol esters, relative value (no antibody = 100%); 6.0 ug antibody” value came out at 90.5%. Besides, the Kd in [7] turned out to be 1.2 nM. For the same molecule, the “percentage reduction of b-hBSSL binding to CD14+ monocytes” value in the assay with Biotinylated human BSSL [8] is 52%. In addition, in the assay with Biotinylated human BSSL [9], the “percentage reduction of b-hBSSL binding to CD14+ monocytes” value came out at 61%. For the same molecule, in [10], the Kd came out at 1.2 nM. The Kd with Mouse BSSL, recombinant [11] was determined as 111 nM.
As to B3, the dissociation constant Kd worked out at 361 nM in the assay with Mouse BSSL, recombinant [12] and 0.91 nM in assay [13].
Regarding B4, in the assay with AS20 scFv, the IC50 is about 2 nM.
